These results are taken from patent US12564623B2, “Methods and compositions for treating cancer” (The University of Chicago, priority 2017, dated 2026).

“Also recorded” adds a separate entry of the source.

One assay relates to MDA-MB-231 cells. The experiment in a line: Cancer cell killing, Calcein AM staining. Type of assay: cell-based, human. The method, then: Approach to identify the factor(s) mediating selective killing. A quantitative cancer cell killing assay was developed to track the bioactive factor(s). MDA-MB-231 cells were treated with various doses of PMN media and cell viability was assessed by Calcein AM live cells fluorescence staining. […] (FIG. 3B) PMN media was passed through a 0.22 μm filter, and protein concentration and killing activity on MDA-MB-231 cancer cells was measured in both pre- and post-filter solutions. […] ELANE and ECP levels in PMN media pre- and post-filtration were quantified by mass spectrometry (spectral counts).
To determine if ELANE and/or ECP were responsible, the inventors (1) immuno-depleted ELANE or ECP from PMN media; (2) treated cancer or normal cells with purified native ELANE or ECP from commercial sources. (FIG. 6A) ELANE or ECP were depleted from PMN media by immunoprecipitation; depletion was confirmed by western blotting. PMN media pre-depletion=Orig. and post-depletion=FT. Non-specific IgG was used as a control. (FIG. 6B) MDA-MB-231 cells or human monocyte-derived macrophages (HMDMs) were treated with purified native ELANE or ECP at various doses for 24h, and killing was assessed by Calcein AM staining. (FIG. 6C) MDA-MB-231 cells and HMDMs were treated with levels of ELANE (0.25 μg/mL) or ECP (0.05 μg/mL) that were present in the PMN media, alone or in combination for 24 hrs, and killing was examined by Calcein AM staining.
High doses of ECP or ELANE can kill cancer cells. The inventors sought to determine whether adding purified human ECP (Lee Biosolutions), human ELANE (Abcam), human DEFA1 (Abcam), human ANXA6 (R&D Systems) or human CASP3 (Abcam) individually could kill cancer cells without killing non-cancer cells. Increasing doses of each protein were added to MDA-MB-231 cells for 5h or human monocyte-derived macrophages (HMDMs) for 24 h and cell viability was determined by Calcein-AM.
ELANE and ECP synergize to selectively kill cancer cells. MDA-MB-231 and human monocyte-derived macrophages (HMDMs) were treated with levels of ELANE (0.25 μg/mL) or ECP (0.05 μg/mL) that were present in the PMN media, alone or in combination for 24 hrs. killing was examined by Calcein AM staining.
Combining chemotherapeutics and neutrophil conditioned media enhances the killing of human triple negative breast cancer cells. MDA-MB-231 cells were treated with neutrophil conditioned media (Neu-CM; 4 μg/mL), doxorubicin (DOX; 0.3 μM), or paclitaxel (PTX; 3 nM) for 4h, individually or in combination, and cell viability was assessed by Calcein-AM.
(§1) Other serine proteases cleave the C-terminal domain of CD95, and the ability to cleave the C-terminal domain is associated with cancer cell killing. (FIG. 12A) Full length recombinanat CD95 protein was incubated with various serine proteases (human ELANE (80 nM), PR3 (80 nM), CSTG (80 nM), PPE (80 nM), mouse ELANE (80 nM), rat ELANE (500 nM), GZMB (80 nM), or Trypsin (250 nM)), or other types of proteases (CTSC (80 nM); or MMP7 (80 nM), MMP9 (80 nM), CTSD (80 nM) not shown) at 37° C. for 2 hours. Degradation was assessed by SDS-PAGE followed by coomassie blue staining. (FIG. 12B) MDA-MB-231 cancer cells were incubated with various proteases for 24 hrs. Cell viability was assessed by Calcein AM staining.
(FIG. 13A) MDA-MB-231 cancer cells were treated with various doses of purified native ELANE or purified native porcine pancreatic elastase (PPE) for 6 h, and killing was assessed by Calcein AM staining. (FIG. 13B). Purified native ELANE or purified native PPE was incubated with different concentrations of alpha-1-anti-trypsin (A1AT) for 15 mins. Catalytic activity was measured using a chromogenic substrate assay. Cancer cell killing capability was determined by treating MDA-MB-231 cancer cells with ELANE or PPE in the presence or absence of A1AT for 6h, followed by Calcein AM staining. (FIG. 13C) Catalytic activity was measured using a chromogenic substrate assay. […]

For assay [1], the target named is T1, CD95 (Homo sapiens, UniProt P25445).
T1 sequence (P25445 26-335): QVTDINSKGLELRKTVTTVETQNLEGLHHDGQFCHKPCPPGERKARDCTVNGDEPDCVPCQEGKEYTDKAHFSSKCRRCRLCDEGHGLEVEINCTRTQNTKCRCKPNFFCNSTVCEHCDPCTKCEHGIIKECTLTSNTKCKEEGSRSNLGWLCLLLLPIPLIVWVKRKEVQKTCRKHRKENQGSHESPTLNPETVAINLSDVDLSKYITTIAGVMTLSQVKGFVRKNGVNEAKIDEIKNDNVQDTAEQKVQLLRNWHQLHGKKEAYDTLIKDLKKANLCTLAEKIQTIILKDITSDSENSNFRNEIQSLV
In words: Recombinant CD95 degradation, SDS-PAGE and coomassie blue. It is filed as biochemical. As to conditions: purified CD95. On the set-up: Recombinant proteins (1 μg) corresponding to full length CD95 (FL-CD95). The method, then:
ELANE lowers CD95 levels in cancer cells and reduced CD95 levels are associated with apoptosis. (FIG. 8A) Recombinant proteins (1 μg) corresponding to full length CD95 (FL-CD95), N-terminal domain of CD95 (amino acids 1-173; N-CD95), or C-terminal domain of CD95 (amino acids 157-320; C-CD95) were inbuated with ELANE (0.05 μg) or vehicle (Veh) for 2 hrs at 37° C. Degradation was assessed by SDS-PAGE followed by coomassie blue staining. […] (FIG. 8C) Cancer cells were treated with ELANE (50 nM) for 1 hr, fixed in 10% formalin, and stained with N- or C-terminal specific anti-CD95 antibodies (green). Hoechst 33342 solution was used for nuclear staining (blue). Images were taken under 40×.
ELANE selectively cleaves the C-terminal domain of CD95. The CD95 pathway is essential for the survival of a wide range of cancer cells, but largely dispensable for normal cell survival (Adachi et al., Nat. Genet., 1995; Karray et al., J. Immunol., 2004). CD95 function can be modulated by proteolysis (Strand et al., Oncogene, 2004). To test CD95 involvement in ELANE mediated cell killing ELANE (0.05 μg) was incubated with 1 μg recombinant human C-terminal (aa. 157-320) or N-terminal (aa. 1-173) CD95 for 2 hrs at 37° C. Degradation was assessed by SDS-PAGE followed by staining with coomassie blue. C-terminal domain cleavage. N-terminal domain cleavage. Cancer cells were treated with ELANE (50 nM) for 1 hr, fixed in 10% formalin, and stained with N- or C-terminal specific anti-CD95 antibodies. Hoechst 33342 solution was used for nuclear staining. Images were taken under 40×. […] Mel888 cancer cells were treated with ELANE (50 nM) for various times, and CD95 degradation was assessed by western blot analysis with a C-terminal specific anti-CD95 antibody.
as §1

Assay [2] concerns the target alpha-1-anti-trypsin (A1AT) (Homo sapiens, UniProt P01009). In words: Inhibition of elastase activity and killing by A1AT or FBS. It is filed as biochemical. The conditions noted are these: 15 mins, killing 6 h. The method, then:
(FIG. 13A) MDA-MB-231 cancer cells were treated with various doses of purified native ELANE or purified native porcine pancreatic elastase (PPE) for 6 h, and killing was assessed by Calcein AM staining. (FIG. 13B). Purified native ELANE or purified native PPE was incubated with different concentrations of alpha-1-anti-trypsin (A1AT) for 15 mins. Catalytic activity was measured using a chromogenic substrate assay. Cancer cell killing capability was determined by treating MDA-MB-231 cancer cells with ELANE or PPE in the presence or absence of A1AT for 6h, followed by Calcein AM staining. (FIG. 13C) Catalytic activity was measured using a chromogenic substrate assay. Cancer cell killing capability was determined by treating MDA-MB-231 cancer cells with ELANE or PPE in the presence or absence of FBS for 6 h, followed by Calcein AM staining.
Elastase activity for purified native ELANE or purified native PPE at various dose were measured. It's corresponding killing ability was also tested on MDA-MB-231 cancer cells. Killing was assessed 6 hrs after treatment by Calcein AM staining. […] Killing was assessed 6 hrs after treatment by Calcein AM staining. […] Killing was assessed 6 hrs after treatment by Calcein AM staining.

For assay [3], the target named is T1, CD95. The conditions noted are these: Strand et al., Oncogene, 2004; cited from earlier work.

Sequence of alpha-1-anti-trypsin (A1AT) (P01009 25-418, species assumed): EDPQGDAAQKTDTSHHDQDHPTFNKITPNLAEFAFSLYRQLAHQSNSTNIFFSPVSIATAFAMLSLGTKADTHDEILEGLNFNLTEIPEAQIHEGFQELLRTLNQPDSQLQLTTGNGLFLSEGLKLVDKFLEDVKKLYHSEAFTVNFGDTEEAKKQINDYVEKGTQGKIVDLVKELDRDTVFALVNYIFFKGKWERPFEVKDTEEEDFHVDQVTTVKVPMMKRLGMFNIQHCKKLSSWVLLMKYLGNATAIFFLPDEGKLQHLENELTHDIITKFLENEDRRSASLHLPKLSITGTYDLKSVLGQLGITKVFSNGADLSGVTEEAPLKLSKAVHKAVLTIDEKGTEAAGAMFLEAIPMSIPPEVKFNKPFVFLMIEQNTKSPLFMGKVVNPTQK

As for porcine pancreatic elastase [PPE], the “cancer cell killing by proteases” value with MDA-MB-231 cells is “killed cancer cells”. For the same substance, the “toxicity to cancer cells, ELANE versus PPE” value in the assay with MDA-MB-231 cells (various doses, 6 h) is reported as “equally toxic to cancer cells”. Besides, the “cleavage of purified CD95” value with CD95 [1] is given as “cleaved purified CD95 with an identical degradation pattern to ELANE”. Further, in assay [2], the “susceptibility to inhibition by serine protease inhibitors” value is “more resistant to inhibition by serine protease inhibitors; also recorded: less susceptibility to alpha 1 anti-trypsin (A1AT) or serum blocking”.
“MMP7: protease previously shown to cleave the extracellular N-terminal domain of CD95”: the “cleavage of CD95” value with CD95 [3] is on record as “cleave the extracellular N-terminal domain of CD95”.
